Assay: label from the status in PepcDB records
With “MKVCYYYDGDVGNYYYGQGHPMKPHRIRMTHNLLLNYGLYRKMEIYRPHKANAEEMTKYHSDDYIKFLRSIRPDNMSEYSKQMQRFNVGEDCPVFDGLFEFCQLSTGGSVASAVKLNKQQTDIAVNWAGGLHHAKKSEASGFCYVNDIVLAILELLKYHQRVLYIDIDIHHGDGVEEAFYTTDRVMTVSFHKYGEYFPGTGDLRDIGAGKGKYYAVNYPLRDGIDDESYEAIFKPVMSKVMEMFQPSAVVLQCGSDSLSGDRLGCFNLTIKGHAKCVEFVKSFNLPMLMLGGGGYTIRNVARCWTYETAVALDTEIPNELPYNDYFEYFGPDFKLHISPSNMTNQNTNEYLEKIKQRLFENLRMLPHLEHHHHHH” the protein production was “failed”.
In the case of “MKVFFVVTHLLGSGHLSRTLVLARAHLKAGHEVTLISGGMPVPHLSHDGITLVQLPALRSDGVNFTRLLDDKGDVASETLMRDRREKLLSTFEEAAPDVLVTELFPFGRRSLSDEFLALLNMAKARKNPPRICCSIRDILAPPSKPSKAARVRDIITEFYDAIIVHSDPDVTPLAASWPVTEDIAEKLRYSGFVANPPAPMHPDAPGQGEVLVSAGGGAVGDALYAAALGAAKLNGDLHWRVLVGGADAPAKCAALKEGCPANTTIEPARPDFRQMLHRAKASVSMCGYNTALDILQSGTPAVFVPFDAGGEVEQSLRASALAKMAGIRVVNSVDLQPEALLNTVHSVVQDPRRGPQTRGLDGASRTAELLETLVEASGHAG”, the protein production is reported as “failed”.
With “MKVFVIGAGLMGRGIAIAIASKHEVVLQDVSEKALEAAREQIPEELLSKIEFTTTLEKVKDCDIVMEAVFEDLNTKVEVLREVERLTNAPLCSNTSVISVDDIAERLDSPSRFLGVHWMNPPHVMPLVEIVISRFTDSKTVAFVEGFLRELGKEVVVCKGQSLVNRFNAAVLSEASRMIEEGVRAEDVDRVWKHHLGLLYTLFGPLGNLDYIGLDVAYYASLYLYKRFGDEKFKPPEWLQEKIKKGEVGVKAGKGIYEYGPKAYEERVERLKKLLRFLGLE” the protein production was “not failed”.
For “MKVGSQVIINTSHMKGMKGAEATVTGAYDTTAYVVSYTPTNGGQRVDHHKWVIQEEIKLEHHHHHH”, the protein production was “failed”.
For “MKVIIIGGETTAYYLARSMLSRKYGVVIINKDRELCEEFAKKLKATIIHGDGSHKEILRDAEVSKNDVVVILTPRDEVNLFIAQLVMKDFGVKRVVSLVNDPGNMEIFKKMGITTVLNLTTLITNTVEALIFPDEFSSIIPLEQ”, the protein production was “not failed”.
With “MKVIKSNKVTNKFKVSILISTYNKEKFIENTLNNILAQTMNKNDFELIIVDDCSTDNTLDIISKKIESFSNYQFVQLDENSGTPAKPRNLSIDLSKGKYIMFVDGDDWLPSDALENLYTLLKSNKTDYATGLTKYVYSDRIARSGVALSKIAYNKIGLKNFRKSFYHLAPAGRMMKSSVIKKNNIRFPEMIFGEDLQFFAEVFFNTKNISTTQDVVYCANRYDENISLVKSEASTVLNRIKWQNEAYRYLTKKYKNNKIFANLLYRIINKDILEGKFYKKGFIKEIDTLLPVFQDILNTIDNDFNSLDYADDTLNQHALTLIKNGDKEEIIDFVNFYLKKDEKPLYLSNDKYYYVYKENKYKKRMHIILQKIIKKDENIFLKLYSKNSELKYLEIKNRKDPTNYTVLEIKKHLFKTGEYTVQFKANELSKGKLALTVLDKDLNGAAIKSGMQFDFYETVNGNLGYIKKLEHHHHHH” the protein production was “not failed”.
For “MKVKILVDSTADVPFSWMEKYDIDSIPLYVVWEDGRSEPDEREPEEIMNFYKRIREAGSVPKTSQPSVEDFKKRYLKYKEEDYDVVLVLTLSSKLSGTYNSAVLASKEVDIPVYVVDTLLASGAIPLPARVAREMLENGATIEEVLKKLDERMKNKDFKAIFYVSNFDYLVKGGRVSKFQGFVGNLLKIRVCLHIENGELIPYRKVRGDKKAIEALIEKLREDTPEGSKLRVIGVHADNEAGVVELLNTLRKSYEVVDEIISPMGKVITTHVGPGTVGFGIEVLERKR”, the protein production was “not failed”.
With “MKVLIGGYTKKTSKGIYELPFIGEDNEAHLEKAENIISVGGPTYFQKDGDLVFTINNAGDEGGISAFKLSDHGSNEIDRHLTPGASPAYIGINKEKKLLYTANYHTAVLSVFQYSNSGKLALVAQTTHKAESLGPRPEQVDGPHPHFFDETPAGNLVSCDLGNDTVDFYRLENNELKHLAQYKNEAGFGDRHIVFSKDGNYFYVVGELSSQINVVKFNENTWEFEDIATYKTIPEDFTEHNGAAALYITNDGKYIYNSNRGHNSITVFKVNDDHTLSLIQRISTFGDFPRDFNWDETQKYVVAANQNTDNATLYLRNGGNGTLTPIQTEIPVPEGTRVLFTKLEHHHHHH” the protein production was “failed”.
In the case of “MKVNTWFGVLELDSNGKTLSSEVFPKDIRELALRSLSLRESRQNLPPEGFDLKTAALECGFTESLSEYYSLLHKVTLETVKLQVSQALTPDQRIIQAVEALDDINETTNSLSERLFEWYGGYFPESGLSGEELAVFISRYGSRENLPPEDPHYLKAKNSMGAKLEAADEVLLKGLAESVCSLYERRKQIEAYIESSMEILAPNLALLAGPMLGARLISIAGSLEKLAAFPSSTIQVIGASKALFKHLRSRAPSPKHGIIYSHPLINTSPWWVRGKVARALAAKLSLAARIDFYSAKRNPSLENELEEKIRKIRAENPRPPQKRQEIRAKPKKKRRKLEHHHHHH”, the protein production is reported as “not failed”.
For “MKVVERYIMRRAFVVFLAALVWTLAIVWTTQVLAKIDLVTDSGQSSLTFFEVAALILPSIIPIVVPFALVVAVAQTLSVMNSDSELVVVNAAGASRWTIVRPIMLLALAASVFSFAVDNGIDPYARQKNRALVAQSRADLLSLIIQEGTFRKIEDGLFLQIGERLPDNRLGGIFVADSREEGVNLVYYAKTGSVVERGGEKVLMMNDGVIHRKTLTGDLSVIRFTSYAFDMSAFMAAASEVTLLPKDQTTQYLLNPNVNDKLYQQAPQQYRAEIDQRFSEWLYSMVFALIALAVAGDARSHREARVNPLITAITISLFVRWLGFFAASKADEVPQYAYMVYGVPIVASAVAIWFIVSNRTMELPVAWADWMTNLASRVGDGWNALKLRWSRRGTSGQGIG”, the protein production was “failed”.
For “MKVVILGSGSYSGTPKPLCNCENCSIARRNPAFRRTRFSLYIEEGKILVDPSPDLHYHLERLNKKVENVFITHAHFDHIFGVPDLQVYKKLIISSNTLGIKVAKELSRLAFGSEVPSGYEWRYEELQFWNEYSFDNFRVIHFPVIHSLEIAGGYLFEIKGRRIGVTGDTGPEILKDEKVKKLLEGVDILIVEMTKRESIPGVHLGVSDSIEFAKVVGASYTVFAHISHTNYSHEVLEKRVRESGVQGEVARDFTIIEVLEHHHHHH”, the protein production was “failed”.
In the case of “MKVVVVDGGGLMGVETALCVRDHGHEVALVQAPGDPHAPLSDEVAEALRGCSVLVDLAHQPSVDIGTLAEDHGLVVDEAALVDSWAGSTGALLRAGAAAGVRHHVCLSVVGVDRIGREGVFRALRNREAMARRSGIPYSILRATQTFDAAEDIATAATEDWIVWVPPAEVRPVSLTDVATLLAHTAVTRPVNGVREIAGPEQFRLDAFVRTALLTEAEYRQVRTDALSPFYGARLRPRDLLPGPDAFIARTTYREWFTGRPAPDTTS”, the protein production is reported as “failed”.
In the case of “MKVYPKVSIVMPVYNSERYLAEAIESILDQTYNDFEFIIVDDGSTDESYNIISSYANKDNRIIVISREHRGLVDSLNEGINIARGKYIARMDADDISINNRIEKQFEFLELNKDVDILGTRIEAFGDIDEKQKTIYNSAFSIKFDSQNIEQVFLTSCAIPHPSVMFKKDSIVKLRGYRKEYDTAEDYDLWLRAIRNGYKIVRMDECLIKYRVHNKSKTAVEMFNPKMVEYTMKAKIDYINDTNKKDKVDYLIWGASTGGKLVKKVVESTTDKFNLIGFIDKYKEGEVDECRIYKPEDLMKLHSDYVFIATLPGKEEADEFLKNCGLKKFKEYISLVLEHHHHHH”, the protein production is reported as “failed”.
In the case of “MKWLDRLKIANYHRKRYKQFGNDKARTLGWQDEYSQISRFEALTRSLCLEAVSILDIGCGFGDLLEYIESQNQYPARYVGIDLQKQFITKARKKAFKTPVNFICGDFSKLVLPQSDYVFASGSLNYKSSNANHTIEMIEKMYRAARIGCVFNLLDEEKLPSMRMLESHNKVGVLRYCRWLCPDAQLIEGYSDHDFTIVMIKKAEPVS”, the protein production is reported as “failed”.
In the case of “MKWNSNLYDHKHSFVAEYGKSMINFVNVGKDQKILDLGCGTGVLTNELAKNGATVIGTDLSKNMIDKAKTNYPNLIFQVKDATNLSFKNEFDTVFSNAVFHWISNQEKLLHSIYTCLKDNGTLICEFGAQNNISQIQTAFEKVIEQKGYSYCSPFFFPSKEEYKLLLDQAGFEVKHIIEYDRPTPLADGEKGLRNWICQFFASDLLEFSDEQKEQILFETEKLCKNSIWKNNQWVADYRRIQIIAVKNKNNGTK”, the protein production is reported as “failed”.

— a protein production outcome set (Wang et al. 2014)
